Test results as given in PMC7316235, “Computational and structure-guided design of phosphoinositide substrate specificity into the tyrosine specific LMW-PTP enzyme” (PLoS ONE, 2020).
Like-named read-outs stand apart in the source and are kept apart here.

Legend:
[1] = target: T1, LMW-PTP (LMW-PTPB) (Homo sapiens, UniProt P24666, L14R/I17K, form not given); assay: malachite green phosphate release, Michaelis-Menten fit; format: biochemical; settings: pH 5.5, 37 °C, diC8 lipid
T1 construct: gene ACP1; N-terminal 6xHis tag (pNIC28a-Bsa4, TEV-cleavable; cleavage described only for crystallisation); E. coli BL21-DE3
T1 sequence (P24666 1-158 isoform P24666-2 L14R/I17K): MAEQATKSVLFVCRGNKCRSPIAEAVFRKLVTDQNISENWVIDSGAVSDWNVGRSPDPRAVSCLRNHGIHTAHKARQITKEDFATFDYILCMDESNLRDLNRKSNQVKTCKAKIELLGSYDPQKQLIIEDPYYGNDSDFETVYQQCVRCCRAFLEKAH
Source text: (§1) malachite green phosphate release, Michaelis-Menten fit on LMW-PTP (LMW-PTPB)

[2] = target: T2, LMW-PTP (LMW-PTPB) (Homo sapiens, UniProt P24666, L14R/I17T, form not given); assay: as above; format: biochemical; settings: pH 5.5, 37 °C, diC8 lipid
T2 construct: gene ACP1; N-terminal 6xHis tag (pNIC28a-Bsa4, TEV-cleavable; cleavage described only for crystallisation); E. coli BL21-DE3
T2 sequence (P24666 1-158 isoform P24666-2 L14R/I17T): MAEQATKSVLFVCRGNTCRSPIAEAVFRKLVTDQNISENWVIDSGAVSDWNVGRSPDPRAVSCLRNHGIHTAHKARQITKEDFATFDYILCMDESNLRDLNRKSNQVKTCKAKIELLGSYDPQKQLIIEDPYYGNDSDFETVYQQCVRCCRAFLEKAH
Source text: as §1

[3] = target: T1, LMW-PTP (LMW-PTPB); assay: pNPP assay, Michaelis-Menten fit; format: biochemical; settings: pH 5.5, 37 °C; read-out: RK / Km
Source text: (§2) pNPP assay, Michaelis-Menten fit on LMW-PTP (LMW-PTPB)

[4] = substrate: O=[N+]([O-])c1ccc(OP(=O)(O)O)cc1; assay: pNPP assay, Michaelis-Menten fit; format: biochemical, Homo sapiens; settings: pH 5.5, 37 °C
Source text: as §2

[5] = substrate: N[C@@H](Cc1ccc(OP(=O)(O)O)cc1)C(=O)O; assay: malachite green phosphate release, Michaelis-Menten fit; format: biochemical, Homo sapiens; settings: pH 5.5, 37 °C
Source text: as §1

[6] = substrate: CCCCCCCC(=O)OC[C@H](COP(=O)(O)O[C@@H]1[C@H](O)[C@H](OP(=O)(O)O)[C@@H](O)[C@H](OP(=O)(O)O)[C@H]1O)OC(=O)CCCCCCC; assay: as above; format: biochemical, Homo sapiens; settings: pH 7.5, 37 °C, diC8 lipid
Source text: malachite green phosphate release, Michaelis-Menten fit on MTMR2

Q: `CCCCCCCC(=O)OC[C@H](COP(=O)(O)O[C@H]1[C@H](O)[C@@H](OP(=O)(O)O)[C@H](O)[C@@H](O)[C@H]1O)OC(=O)CCCCCCC` [PI(5)P] was tested. Which Km ([1]; read-out: RK / Km) did it give?
A: 35.9 ± 6.3 µM

Q: And the Km ([1]; read-out: RKK / Km)?
A: 27.2 ± 7 µM

Q: What about the Km ([2]; read-out: RT / Km) of the same molecule?
A: 29.2 ± 3.7 µM

Q: And the Km ([2]; read-out: RTK / Km)?
A: 26.2 ± 3.9 µM

Q: With `O=[N+]([O-])c1ccc(OP(=O)(O)O)cc1` [pNPP] as the molecule, how does the Km [3] read?
A: 1390 ± 105 µM

Q: Which Km ([1]; read-out: RK / Km) does the source give for `CCCCCCCC(=O)OC[C@H](COP(=O)(O)O[C@H]1[C@H](O)[C@@H](O)[C@H](OP(=O)(O)O)[C@@H](O)[C@H]1O)OC(=O)CCCCCCC` [PI(4)P] here?
A: 30.7 ± 3.5 µM

Q: `CCCCCCCC(=O)OC[C@H](COP(=O)(O)O[C@@H]1[C@H](O)[C@H](OP(=O)(O)O)[C@@H](O)[C@H](O)[C@H]1O)OC(=O)CCCCCCC` [PI(3)P] was tested. Which Km ([1]; read-out: RK / Km) did it give?
A: 22.9 ± 5 µM

B1: LMW-PTP (LMW-PTPB) (Homo sapiens) (protein)
chain: MAEQATKSVLFVCLGNICRSPIAEAVFRKLVTDQNISENWVIDSGAVSDWNVGRSPDPRAVSCLRNHGIHTAHKARQITKEDFATFDYILCMDESNLRDLNRKSNQVKTCKAKIELLGSYDPQKQLIIEDPYYGNDSDFETVYQQCVRCCRAFLEKAH
notes: N-terminal 6xHis tag (pNIC28a-Bsa4, TEV-cleavable; cleavage described only for crystallisation); E. coli BL21-DE3
Q: What does the source list for B1?
A: Km [4]: 476 ± 30.2 µM; kcat [4]: 6.03 ± 0.106 s⁻¹; kcat/Km [4]: 12700 ± 670 M⁻¹ s⁻¹; Km [5]: 307 ± 29 µM; kcat [5]: 0.000226 ± 1.9e-05 s⁻¹; kcat/Km [5]: 0.735 ± 0.054 M⁻¹ s⁻¹

B2: MTMR2 (Homo sapiens) (protein)
chain: MEKSSSCESLGSQPAAARPPSVDSLSSASTSHSENSVHTKSASVVSSDSISTSADNFSPDLRVLRESNKLAEMEEPPLLPGENIKDMAKDVTYICPFTGAVRGTLTVTNYRLYFKSMERDPPFVLDASLGVINRVEKIGGASSRGENSYGLETVCKDIRNLRFAHKPEGRTRRSIFENLMKYAFPVSNNLPLFAFEYKEVFPENGWKLYDPLLEYRRQGIPNESWRITKINERYELCDTYPALLVVPANIPDEELKRVASFRSRGRIPVLSWIHPESQATITRCSQPMVGVSGKRSKEDEKYLQAIMDSNAQSHKIFIFDARPSVNAVANKAKGGGYESEDAYQNAELVFLDIHNIHVMRESLRKLKEIVYPNIEETHWLSNLESTHWLEHIKLILAGALRIADKVESGKTSVVVHCSDGWDRTAQLTSLAMLMLDGYYRTIRGFEVLVEKEWLSFGHRFQLRVGHGDKNHADADRSPVFLQFIDCVWQMTRQFPTAFEFNEYFLITILDHLYSCLFGTFLCNSEQQRGKENLPKRTVSLWSYINSQLEDFTNPLYGSYSNHVLYPVASMRHLELWVGYYIRWNPRMKPQEPIHNRYKELLAKRAELQKKVEELQREISNRSTSSSERASSPAQCVTPVQTVV
notes: E. coli BL21-DE3
Q: With B2 as the molecule, how does the Km [6] read?
A: 62 ± 4 µM

Q: What about the kcat [6] of the same molecule?
A: 348 ± 17 x 10^-3 s^-1
